From the supplement of paper PMC10567573

B1: PPP2R2B (parent)
chain: RNTKRDVTLEASRENSKPRAILKP
B2: GNB5 (parent)
chain: DINSVRYYPSGDAFASGSDDATCR

Variants of: B1
Test: protein stability index of a GFP-peptide fusion (GPS, HEK-293T) (PSI 1-6); higher = more stable
Settings: c terminus: a fixed tail appended
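Also: lentivirally expressed fusions sorted by FACS into six bins by GFP to DsRed ratio, PSI derived from sequencing read proportions per bin multiplied by bin number.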

Compared with P24M, P24H is higher in protein stability index: 4.06 for the first, 4.41 for the second.

Going from P24F to P24Q, the protein stability index rises from 3.56 to 4.47.

Compared with P24I, P24T is higher in protein stability index: 3.32 for the first, 4.88 for the second.

First: P24Y
Second: P24L
The protein stability index of the first is lower: 3.58 for the first, 4 for the second.

First: A20M
Second: A20C
The protein stability index of the first is higher: 4.65 for the first, 4.17 for the second.

Compared with A20K, A20N is lower in protein stability index: 5.04 for the first, 4.64 for the second.

Going from A20Y to A20H, the protein stability index rises from 4.1 to 4.85.

First: A20T
Second: A20V
The protein stability index of the first is higher: 4.49 for the first, 4.38 for the second.

Compared with A20G, A20E is higher in protein stability index: 4.39 for the first, 5 for the second.

First: A20D
Second: A20F
The protein stability index of the first is higher: 4.64 for the first, 4.03 for the second.

Compared with A20L, A20P is higher in protein stability index: 4.19 for the first, 4.3 for the second.

Compared with A20S, A20I is lower in protein stability index: 4.48 for the first, 4.32 for the second.

Going from A20W to A20Q, the protein stability index rises from 3.3 to 4.44.

Going from A20R to L22T, the protein stability index falls from 4.66 to 4.49.

First: L22D
Second: L22F
The protein stability index of the first is higher: 5.09 for the first, 4.5 for the second.

First: L22N
Second: L22Y
The protein stability index of the first is higher: 4.79 for the first, 4.37 for the second.

Going from L22R to L22M, the protein stability index falls from 4.75 to 4.33.

First: L22K
Second: L22Q
The protein stability index of the first is higher: 5.11 for the first, 4.92 for the second.

Going from L22S to L22W, the protein stability index falls from 4.9 to 3.98.

First: L22V
Second: L22E
The protein stability index of the first is lower: 4.72 for the first, 5.31 for the second.

Compared with L22A, L22C is lower in protein stability index: 4.99 for the first, 4.47 for the second.

Compared with L22H, L22G is lower in protein stability index: 4.8 for the first, 4.69 for the second.

Going from L22I to L22P, the protein stability index rises from 4.2 to 4.28.

Going from R19L to R19E, the protein stability index rises from 4.7 to 5.04.

First: R19Q
Second: R19A
The protein stability index of the first is higher: 4.75 for the first, 4.2 for the second.

Going from R19P to R19S, the protein stability index falls from 4.79 to 4.41.

Going from R19K to R19D, the protein stability index rises from 4.7 to 4.86.

First: R19H
Second: R19Y
The protein stability index of the first is higher: 4.46 for the first, 4.21 for the second.

Going from R19V to R19W, the protein stability index falls from 4.72 to 3.98.

Going from R19T to R19G, the protein stability index rises from 4.52 to 4.86.

First: R19N
Second: R19F
The protein stability index of the first is higher: 4.7 for the first, 4.12 for the second.

Compared with R19I, R19C is higher in protein stability index: 4.39 for the first, 4.69 for the second.

Compared with R19M, N15F is higher in protein stability index: 4.44 for the first, 4.66 for the second.

Compared with N15E, N15C is lower in protein stability index: 4.92 for the first, 4.13 for the second.

First: N15M
Second: N15H
The protein stability index of the first is higher: 4.09 for the first, 3.94 for the second.

First: N15W
Second: N15V
The protein stability index of the first is lower: 3.77 for the first, 4.45 for the second.

First: N15Q
Second: N15K
The protein stability index of the first is lower: 4.73 for the first, 4.82 for the second.

N15T and N15G are the same in protein stability index: 4.49 for the first, 4.49 for the second.

Compared with N15P, N15S is higher in protein stability index: 4.32 for the first, 4.85 for the second.

Compared with N15D, N15A is lower in protein stability index: 4.77 for the first, 4.29 for the second.

First: N15I
Second: N15L
The protein stability index of the first is higher: 4.59 for the first, 4.53 for the second.

Compared with N15R, N15Y is lower in protein stability index: 4.22 for the first, 4.09 for the second.

Going from A11Y to A11T, the protein stability index rises from 3.92 to 4.44.

Going from A11W to A11S, the protein stability index rises from 3.95 to 4.67.

Compared with A11H, A11C is lower in protein stability index: 4.8 for the first, 4.52 for the second.

First: A11V
Second: A11F
The protein stability index of the first is higher: 4.49 for the first, 3.59 for the second.

First: A11M
Second: A11D
The protein stability index of the first is lower: 4.36 for the first, 4.78 for the second.

Going from A11L to A11P, the protein stability index rises from 3.35 to 4.23.

Compared with A11E, A11R is lower in protein stability index: 5.24 for the first, 4.58 for the second.

Going from A11K to A11Q, the protein stability index rises from 4.23 to 4.28.

Compared with A11N, A11G is higher in protein stability index: 4.3 for the first, 4.49 for the second.

For A11I, the protein stability index was 3.92.

Variants of: B2
Test: as above
Settings: c terminus: a fixed tail appended

Going from N3G to N3A, the protein stability index rises from 4.53 to 4.66.

Compared with N3W, N3P is higher in protein stability index: 3.74 for the first, 4.64 for the second.

Compared with N3M, N3F is higher in protein stability index: 3.42 for the first, 3.76 for the second.

Going from N3V to N3S, the protein stability index rises from 3.56 to 4.07.

First: N3L
Second: N3I
The protein stability index of the first is lower: 3.35 for the first, 3.57 for the second.

Compared with N3E, N3C is lower in protein stability index: 4.52 for the first, 3.87 for the second.

First: N3Y
Second: N3H
The protein stability index of the first is lower: 3.68 for the first, 4.43 for the second.

First: N3K
Second: N3Q
The protein stability index of the first is lower: 4.04 for the first, 4.31 for the second.

Compared with N3T, N3D is higher in protein stability index: 3.77 for the first, 5.08 for the second.

First: N3R
Second: I2V
The protein stability index of the first is higher: 4.55 for the first, 3.93 for the second.

Compared with I2R, I2D is higher in protein stability index: 4.36 for the first, 5.39 for the second.

Going from I2K to I2S, the protein stability index falls from 4.68 to 4.6.

Compared with I2T, I2P is higher in protein stability index: 4.49 for the first, 4.92 for the second.

Going from I2N to I2A, the protein stability index falls from 4.92 to 4.41.

Going from I2F to I2G, the protein stability index rises from 3.98 to 4.54.

Compared with I2L, I2M is higher in protein stability index: 3.82 for the first, 4.1 for the second.

Going from I2Q to I2C, the protein stability index falls from 4.72 to 4.32.

First: I2E
Second: I2H
The protein stability index of the first is higher: 4.87 for the first, 4.51 for the second.

Compared with I2Y, I2W is lower in protein stability index: 4.32 for the first, 3.99 for the second.

First: D1M
Second: D1G
The protein stability index of the first is lower: 3.81 for the first, 4.36 for the second.

Compared with D1L, D1E is higher in protein stability index: 3.73 for the first, 4.1 for the second.

First: D1A
Second: D1S
The protein stability index of the first is lower: 4.18 for the first, 4.74 for the second.

Going from D1W to D1H, the protein stability index rises from 2.68 to 3.48.

Going from D1Q to D1F, the protein stability index falls from 4.23 to 2.54.

Going from D1T to D1P, the protein stability index falls from 3.95 to 3.33.

First: D1V
Second: D1C
The protein stability index of the first is higher: 3.58 for the first, 3.44 for the second.

Compared with D1I, D1Y is lower in protein stability index: 3.48 for the first, 2.5 for the second.

Going from D1R to D1K, the protein stability index falls from 4.04 to 3.85.

Going from D1N to S4H, the protein stability index falls from 4.37 to 4.07.

First: S4D
Second: S4A
The protein stability index of the first is higher: 4.53 for the first, 3.95 for the second.

First: S4G
Second: S4C
The protein stability index of the first is higher: 3.6 for the first, 3.44 for the second.

First: S4F
Second: S4E
The protein stability index of the first is lower: 3.48 for the first, 4.29 for the second.
